Here are results for two molecules from PMC2120989 (The Journal of Cell Biology, 1996).

The target of assay [1] is full-length recombinant fascin, thioredoxin fusion protein (mouse, UniProt Q61553 1-493). Kind of assay: co-IP.
The target of assay [2] is T1, recombinant full-length (His)6-tagged Xenopus beta-catenin (Xenopus, UniProt P26233 1-781).
T1 sequence (looked up): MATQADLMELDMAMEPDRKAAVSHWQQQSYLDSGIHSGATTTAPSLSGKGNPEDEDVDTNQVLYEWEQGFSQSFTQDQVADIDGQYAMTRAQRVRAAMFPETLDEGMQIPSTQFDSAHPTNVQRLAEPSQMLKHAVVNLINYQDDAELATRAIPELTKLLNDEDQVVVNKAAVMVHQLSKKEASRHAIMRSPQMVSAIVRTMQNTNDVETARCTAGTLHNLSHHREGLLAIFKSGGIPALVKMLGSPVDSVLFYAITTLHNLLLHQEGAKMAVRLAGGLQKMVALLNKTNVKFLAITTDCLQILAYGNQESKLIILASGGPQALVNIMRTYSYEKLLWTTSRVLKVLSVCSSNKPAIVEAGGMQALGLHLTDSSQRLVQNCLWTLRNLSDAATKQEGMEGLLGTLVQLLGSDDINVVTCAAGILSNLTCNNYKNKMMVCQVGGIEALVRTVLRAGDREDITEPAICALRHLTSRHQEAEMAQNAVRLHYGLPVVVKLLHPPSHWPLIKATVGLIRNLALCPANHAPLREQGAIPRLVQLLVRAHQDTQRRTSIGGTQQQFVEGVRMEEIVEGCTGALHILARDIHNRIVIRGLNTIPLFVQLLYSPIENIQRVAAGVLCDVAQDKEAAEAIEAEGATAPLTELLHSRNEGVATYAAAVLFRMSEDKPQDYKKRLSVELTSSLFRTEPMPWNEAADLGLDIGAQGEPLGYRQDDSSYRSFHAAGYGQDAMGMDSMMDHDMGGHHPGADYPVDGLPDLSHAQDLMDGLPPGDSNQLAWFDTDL
Kind of assay: co-IP.

B1: GST fusion protein of the Armadillo repeat region of beta-catenin (amino acid residues 167-583) (domain or fragment)
chain: VVNKAAVMVHQLSKKEASRHAIMRSPQMVSAIVRTMQNTNDVETARCTAGTLHNLSHHREGLLAIFKSGGIPALVKMLGSPVDSVLFYAITTLHNLLLHQEGAKMAVRLAGGLQKMVALLNKTNVKFLAITTDCLQILAYGNQESKLIILASGGPQALVNIMRTYSYEKLLWTTSRVLKVLSVCSSNKPAIVEAGGMQALGLHLTDSSQRLVQNCLWTLRNLSDAATKQEGMEGLLGTLVQLLGSDDINVVTCAAGILSNLTCNNYKNKMMVCQVGGIEALVRTVLRAGDREDITEPAICALRHLTSRHQEAEMAQNAVRLHYGLPVVVKLLHPPSHWPLIKATVGLIRNLALCPANHAPLREQGAIPRLVQLLVRAHQDTQRRTSIGGTQQQFVEGVRMEEIVEGCTGALHILARD
Turning to B1, the binding result in assay [1] is on record as “binds”.

B2: GST-E-cadherin fusion protein, cytoplasmic domain (residues 734-884) of mouse E-cadherin (domain or fragment)
chain: not shown
With B2, the binding result in assay [2] is “binds”.
